Here are results for one molecule from publication PMC11603049.

For this data set, the target named is MARV NPcore (VP35 NPBP removed by TEV) (Marburg virus (Mt. Elgon-Musoke strain), UniProt P27588 1-430).
Sequence of MARV NPcore (VP35 NPBP removed by TEV) (P27588 1-430): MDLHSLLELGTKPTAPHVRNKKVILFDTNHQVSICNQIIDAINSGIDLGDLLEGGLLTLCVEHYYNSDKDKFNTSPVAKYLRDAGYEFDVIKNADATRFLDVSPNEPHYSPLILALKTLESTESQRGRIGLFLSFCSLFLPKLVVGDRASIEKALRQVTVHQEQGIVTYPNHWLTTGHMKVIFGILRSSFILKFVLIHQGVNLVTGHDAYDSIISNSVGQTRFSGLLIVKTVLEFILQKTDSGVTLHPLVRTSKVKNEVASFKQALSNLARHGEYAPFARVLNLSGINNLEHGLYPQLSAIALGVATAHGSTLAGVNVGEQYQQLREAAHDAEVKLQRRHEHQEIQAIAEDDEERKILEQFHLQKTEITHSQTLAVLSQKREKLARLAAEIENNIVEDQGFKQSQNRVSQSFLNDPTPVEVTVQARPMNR

Consider AGACACACAAAAACAAGA (ssRNA) [18 nt ssRNA, first 18 bases of the MARV genome], for which the binding result was “binds”.
